According to US20240100133A1, “ENZYMATICALLY INACTIVE GRANZYME A AND USES THEREFORE” (Saint Louis University, priority 2022, published 2024):

How the values were obtained:
[1] = tested on: Connaught BCG within primary CD14+ human monocytes; type: cell-based
[2] = tested on: Mtb H37Rv within primary CD14+ human monocytes; type: cell-based, Mycobacterium tuberculosis
[3] = thawed aliquots tested up to a week after thawing
TLR4 = TLR4 (Homo sapiens, UniProt O00206); assay: Immunoprecipitation with anti-GzmA, probed for TLR4; conditions: human monocyte lysates, infected and uninfected cells
Sequence of TLR4 (O00206 24-839): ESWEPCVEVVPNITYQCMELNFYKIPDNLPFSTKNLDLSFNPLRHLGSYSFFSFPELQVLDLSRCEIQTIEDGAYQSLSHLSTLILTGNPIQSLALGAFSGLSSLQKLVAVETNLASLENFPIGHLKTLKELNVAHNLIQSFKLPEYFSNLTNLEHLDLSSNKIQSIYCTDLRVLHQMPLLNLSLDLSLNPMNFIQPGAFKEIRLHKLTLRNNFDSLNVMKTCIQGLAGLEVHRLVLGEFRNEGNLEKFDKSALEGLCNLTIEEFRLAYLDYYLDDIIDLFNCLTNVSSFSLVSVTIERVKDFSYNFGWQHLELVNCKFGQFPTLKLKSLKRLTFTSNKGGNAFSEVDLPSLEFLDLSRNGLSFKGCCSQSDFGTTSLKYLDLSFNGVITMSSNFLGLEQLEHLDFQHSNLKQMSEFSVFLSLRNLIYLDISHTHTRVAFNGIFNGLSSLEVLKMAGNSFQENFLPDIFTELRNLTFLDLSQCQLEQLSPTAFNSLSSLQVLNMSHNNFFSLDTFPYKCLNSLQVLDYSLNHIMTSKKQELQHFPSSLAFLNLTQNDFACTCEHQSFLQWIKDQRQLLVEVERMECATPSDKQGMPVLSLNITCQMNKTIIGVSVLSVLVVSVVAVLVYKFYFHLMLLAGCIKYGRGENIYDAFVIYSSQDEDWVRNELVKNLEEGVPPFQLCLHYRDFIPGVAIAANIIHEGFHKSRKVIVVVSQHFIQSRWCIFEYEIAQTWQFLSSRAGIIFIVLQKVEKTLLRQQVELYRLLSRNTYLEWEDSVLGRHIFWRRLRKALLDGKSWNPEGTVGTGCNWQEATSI

PDIA1 = PDIA1 (Homo sapiens, UniProt P07237); assay: STED microscopy colocalization of GzmA with PDIA1; type: cell-based; design: endogenous in cells; host or cells: primary human monocytes infected with mycobacteria; conditions: STED images, infected and treated human monocytes
Sequence of PDIA1 (P07237 18-508): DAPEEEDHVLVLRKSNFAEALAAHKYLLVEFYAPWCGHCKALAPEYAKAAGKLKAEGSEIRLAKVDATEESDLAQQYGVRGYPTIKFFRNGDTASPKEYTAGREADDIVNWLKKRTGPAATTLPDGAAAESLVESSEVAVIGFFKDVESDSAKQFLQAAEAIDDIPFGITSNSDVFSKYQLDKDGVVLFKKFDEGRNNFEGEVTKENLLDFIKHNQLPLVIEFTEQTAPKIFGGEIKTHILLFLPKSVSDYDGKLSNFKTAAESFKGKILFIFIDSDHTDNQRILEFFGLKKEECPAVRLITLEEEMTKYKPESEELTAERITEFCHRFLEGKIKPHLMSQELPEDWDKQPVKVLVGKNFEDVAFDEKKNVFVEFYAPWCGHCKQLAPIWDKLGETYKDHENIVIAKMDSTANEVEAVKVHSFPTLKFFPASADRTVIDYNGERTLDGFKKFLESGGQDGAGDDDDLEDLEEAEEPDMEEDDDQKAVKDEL
Method: Confocal microscopy and Stimulation Emission Depletion (STED) experiments. For confocal and STED microscopy experiments, cells were incubated on coverslips pre-treated with Cell-Tak (Corning #354240). At the time of fixation, cells were washed twice with 1×RT PBS, and then fixed in 4% paraformaldehyde for 15 min at 37° C. Slides were washed thrice for 5 min at RT with 1×PBS, and then blocked with 5% donkey serum (Cat. #017-000-121, Jackson ImmunoResearch, West Grove, PA) with 0.25% Tween-20 (Cat. #P9416, Sigma, St. Louis, MO) and True Stain Fc blocker (added only during blocking step) (Cat. #426101, Biolegend, San Diego, CA). Cells were then incubated overnight at 4° C. with primary antibody anti-GzmA (Cat. #MAB29051, R&D, Minneapolis, MN) at 12.5 μg/mL in blocking buffer, anti-PDIA1 (Cat. #MAB4236, R&D, Minneapolis, MN) at 12.5 μg/mL in blocking buffer, anti-LAMP1 at 12.5 ug/ml (Cat. #MAB4800, R&D, Minneapolis, MN), or anti-ATPSH (Cat. #ab110275, Abcam, Cambridge, UK) at 5 μg/mL in blocking buffer. To remove unbound antibody, cells were washed four times with 1×PBS at RT, and then incubated in the dark for 2 h with secondary antibody conjugated with Alexa Fluor 594 (Cat. #715-545-150, Jackson Immunoresearch, West Grove, PA) at 1:100 or Atto 647N (Cat. #ASR3248, Abcepta, San Diego, Ca) at 1:100. […]

B1: GzmA-WT: recombinant wild-type human Granzyme A, homodimeric serine protease, purified from HEK293T supernatants (protein)
chain: IIGGNEVTPHSRPYMVLLSLDRKTICAGALIAKDWVLTAAHCNLNKRSQVILGAHSITREEPTKQIMLVKKEFPYPCYDPATREGDLKLLQLMEKAKINKYVTILHLPKKGDDVKPGTMCQVAGWGRTHNSASWSDTLREVNITIIDRKVCNDRNHYNFNPVIGMNMVCAGSLRGGRDSCNGDSGSPLLCEGVFRGVTSFGLENKCGDPRGPGVYILLSKKHLNWIIMTIKGAV
modifications: left off: small tags and cut ends
notes: recombinant wild-type human Granzyme A, homodimeric serine protease, purified from HEK293T supernatants
Q: Which “GzmA inhibitory activity after CD14 neutralization (MGIA)” value [1] does the source give for B1 here?
A: lost their inhibitory activity

Q: What about the “GzmA inhibitory activity after TLR2 neutralization (MGIA)” value [1] of the same molecule?
A: does not reverse

Q: And the “GzmA inhibitory activity after TLR4 neutralization (MGIA)” value [1]?
A: reversed GzmA-mediated mycobacterial growth inhibition

Q: And the “intracellular replication of pre-opsonized mycobacteria (excess protein removed)” value [1]?
A: reduced intracellular replication capacity

Q: And the “mycobacterial growth inhibition, GzmA added prior to or during infection” value [1]?
A: maximal inhibitory effects

Q: And the “mycobacterial growth inhibition, GzmA added to already infected cells” value [1]?
A: did not mediate inhibition

Q: What about the “inhibition of intracellular mycobacterial replication (MGIA)” value ([1]; 72 h) of the same molecule?
A: inhibits the intracellular replication of mycobacteria

Q: And the “inhibition of intracellular Mtb (MGIA)” value ([2]; 200 nM GzmA, Mtb MOI 1, human monocytes)?
A: inhibited Mtb

Q: What about the “GzmA inhibitory activity after CD14 neutralization, Mtb” value ([2]; Mtb-infected monocytes, anti-CD14) of the same molecule?
A: reversed GzmA-mediated mycobacterial growth inhibition

Q: What about the “GzmA inhibitory activity after TLR4 neutralization, Mtb” value ([2]; Mtb-infected monocytes, anti-TLR4) of the same molecule?
A: reversed GzmA-mediated mycobacterial growth inhibition

Q: And the “stability at 4° C. (retention of substrate activity)” value [3]?
A: continued to retain its activity

Q: What about the “binding to TLR4 (immunoprecipitation)” value (TLR4) of the same molecule?
A: bound to GzmA-WT

Q: What about the “degree of co-localization between GzmA and PDIA1” value (PDIA1) of the same molecule?
A: 75%
